Molecular target: Jak2 (UniProt O60674)
Experiment: phosphorylation enrichment, bacterial display (enrichment ratio); higher = better substrate or ligand; peptides without Tyr show the background
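Also: 11-residue human phosphosite peptides and single-mutation variants displayed on the E. coli surface, counted by deep sequencing, each peptide's frequency after selection divided by its frequency in the unselected input library; frequency after pTyr selection over input frequency; kinase dosed for 20-30% of maximal phosphorylation in three min.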

Sequence of Jak2 (O60674 whole entry, looked up): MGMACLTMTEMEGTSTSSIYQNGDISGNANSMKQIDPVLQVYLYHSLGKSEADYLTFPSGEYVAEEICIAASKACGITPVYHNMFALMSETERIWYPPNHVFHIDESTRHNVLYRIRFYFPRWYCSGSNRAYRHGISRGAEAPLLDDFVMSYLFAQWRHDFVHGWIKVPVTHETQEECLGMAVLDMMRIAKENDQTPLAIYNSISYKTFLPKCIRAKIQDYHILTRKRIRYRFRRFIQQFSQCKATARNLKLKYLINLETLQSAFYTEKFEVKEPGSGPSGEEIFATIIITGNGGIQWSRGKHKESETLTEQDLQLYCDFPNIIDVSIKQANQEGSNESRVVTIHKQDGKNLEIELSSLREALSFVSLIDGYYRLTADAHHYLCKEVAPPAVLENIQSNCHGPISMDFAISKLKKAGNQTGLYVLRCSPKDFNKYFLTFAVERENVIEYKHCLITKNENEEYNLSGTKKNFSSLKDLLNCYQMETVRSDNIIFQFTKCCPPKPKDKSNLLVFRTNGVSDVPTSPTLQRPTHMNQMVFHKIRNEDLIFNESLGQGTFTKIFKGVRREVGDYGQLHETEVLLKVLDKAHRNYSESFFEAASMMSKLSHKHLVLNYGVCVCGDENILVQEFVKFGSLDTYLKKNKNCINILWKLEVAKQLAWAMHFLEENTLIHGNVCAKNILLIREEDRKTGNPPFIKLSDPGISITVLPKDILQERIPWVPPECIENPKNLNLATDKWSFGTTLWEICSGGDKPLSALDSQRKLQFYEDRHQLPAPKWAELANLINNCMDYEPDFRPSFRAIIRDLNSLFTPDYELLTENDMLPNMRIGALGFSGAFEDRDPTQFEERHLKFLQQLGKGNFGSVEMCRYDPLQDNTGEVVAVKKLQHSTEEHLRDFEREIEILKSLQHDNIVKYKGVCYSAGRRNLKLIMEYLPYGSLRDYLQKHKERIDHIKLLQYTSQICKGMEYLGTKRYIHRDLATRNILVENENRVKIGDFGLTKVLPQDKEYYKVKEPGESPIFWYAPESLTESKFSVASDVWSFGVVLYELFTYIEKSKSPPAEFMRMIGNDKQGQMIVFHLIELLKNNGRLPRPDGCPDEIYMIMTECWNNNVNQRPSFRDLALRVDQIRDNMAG

Row | Sequence | phosphorylation enrichment
1 | EALDFCGEVRT [PTEN_Y155_Y155C] | 1.41
2 | AIIEEYLHLND [EIF4G1_Y1253] | 0.959
3 | HLMLQYDAVVN [SLC25A32_Y152_R147H] | 1.51
4 | RKGGSYSQAAS [HLA-A_Y344_T345S] | 0.401
5 | LRGEDYGFSVD [PRKCI_Y430] | 1
6 | RHLREYQDLLN [DES_Y388] | 0.807
7 | RTLSEYARRHV [RERE_Y1259_P1262R] | 0.596
8 | LKKKQYTSIHH [APP_Y728] | 0.949
9 | SPFAVYLFFTF [RPGRIP1_Y826_R827L_YF] | 0.891
10 | DCAAIYGNEPE [AKR1A1_Y50] | 1.42
11 | MAYDRYAAICS [OR8H2_Y123_H120Y] | 1.04
12 | RGVTRYIFNRE [HLA-DQB1_Y62_Y58G_YF] | 1.74
13 | YQLENCCNGGG [INS_Y108_Y108C] | 0.763
14 | NYNPNYCFAGK [ALK_Y1096_D1091N] | 0.856
15 | IWDLKYTIENP [SND1_Y178_R174W] | 1.02
16 | AVLQPYIFVAT [CFTR_Y1014] | 1.84
17 | SLALFYRNVFH [RBL1_Y792_K794N_YF] | 1.02

Row | Sequence | phosphorylation enrichment
18 | RFGKVYKAHLF [ROR2_Y488_G490A] | 0.39
19 | VHNLDYFKKTT [FGFR3_Y647_YF] | 0.857
20 | EAKENYGKTLK [CHL1_Y291_T287A] | 0.52
21 | EDASEYFENFI [PARP4_Y214_F215Y_YF] | 1.39
22 | GFFDLYGGEKF [PTPN11_Y66_D61G_YF] | 0.914
23 | ESFRLYPPVPQ [CYP4B1_Y377] | 0.536
24 | NTQRPHYKGGG [TYROBP_Y111_Y111H] | 0.491
25 | LSSETYVKSFT [F5_Y2149_M2148T_YF] | 1.06
26 | MKSIKYMDKEI [CCDC60_Y41] | 0.603
27 | RSSGGYEPRGC [FUS_Y239_R244C] | 0.499
28 | ESLRRYLENGK [HLA-B_Y195_W191S] | 0.519
29 | FGGLRYGFGGL [KRTAP20-2_Y13_V17G_YF] | 0.664
30 | DTERIYDDDFF [UBA1_Y560] | 1.63
31 | IKETHYMVDKC | 0.804
32 | ENPLDYGSAWA [AR_Y395] | 0.991
33 | ENELTYFCCKK [CD59_Y86_YF] | 2.65

Molecular target: FGFR1 (UniProt P11362)
Experiment: as above

Sequence of FGFR1 (P11362 whole entry, looked up): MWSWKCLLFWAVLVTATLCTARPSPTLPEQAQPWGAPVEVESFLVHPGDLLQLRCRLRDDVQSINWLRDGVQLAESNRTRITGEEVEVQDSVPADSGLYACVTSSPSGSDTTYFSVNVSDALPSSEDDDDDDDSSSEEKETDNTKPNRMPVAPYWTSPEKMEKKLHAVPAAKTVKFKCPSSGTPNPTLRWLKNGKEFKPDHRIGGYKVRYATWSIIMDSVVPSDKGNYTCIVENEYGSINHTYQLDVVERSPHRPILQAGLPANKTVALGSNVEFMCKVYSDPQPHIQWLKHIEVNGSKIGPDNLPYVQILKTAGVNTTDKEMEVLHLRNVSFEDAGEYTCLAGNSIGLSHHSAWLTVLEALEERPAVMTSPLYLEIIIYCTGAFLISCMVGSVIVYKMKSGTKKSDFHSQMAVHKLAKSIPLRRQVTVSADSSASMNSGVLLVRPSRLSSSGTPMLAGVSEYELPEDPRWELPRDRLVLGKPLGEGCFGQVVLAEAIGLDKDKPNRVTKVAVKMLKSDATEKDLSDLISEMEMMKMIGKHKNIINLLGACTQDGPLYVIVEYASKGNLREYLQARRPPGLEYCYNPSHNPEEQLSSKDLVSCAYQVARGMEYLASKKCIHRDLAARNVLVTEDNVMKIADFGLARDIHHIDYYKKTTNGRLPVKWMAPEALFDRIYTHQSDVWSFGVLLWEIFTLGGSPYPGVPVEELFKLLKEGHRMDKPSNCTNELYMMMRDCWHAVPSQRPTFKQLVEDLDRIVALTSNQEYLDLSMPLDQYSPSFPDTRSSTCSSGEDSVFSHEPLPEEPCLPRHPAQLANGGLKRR

Row | Sequence | phosphorylation enrichment
34 | EALDFCGEVRT [PTEN_Y155_Y155C] | 0.803
35 | AIIEEYLHLND [EIF4G1_Y1253] | 0.564
36 | HLMLQYDAVVN [SLC25A32_Y152_R147H] | 1.19
37 | RKGGSYSQAAS [HLA-A_Y344_T345S] | 0.523
38 | LRGEDYGFSVD [PRKCI_Y430] | 0.587
39 | RHLREYQDLLN [DES_Y388] | 0.61
40 | RTLSEYARRHV [RERE_Y1259_P1262R] | 0.393
41 | LKKKQYTSIHH [APP_Y728] | 0.631
42 | SPFAVYLFFTF [RPGRIP1_Y826_R827L_YF] | 0.467
43 | DCAAIYGNEPE [AKR1A1_Y50] | 0.588
44 | MAYDRYAAICS [OR8H2_Y123_H120Y] | 0.526
45 | RGVTRYIFNRE [HLA-DQB1_Y62_Y58G_YF] | 0.757
46 | YQLENCCNGGG [INS_Y108_Y108C] | 0.547
47 | NYNPNYCFAGK [ALK_Y1096_D1091N] | 0.563
48 | IWDLKYTIENP [SND1_Y178_R174W] | 0.497
49 | AVLQPYIFVAT [CFTR_Y1014] | 1.2
50 | SLALFYRNVFH [RBL1_Y792_K794N_YF] | 0.447

Row | Sequence | phosphorylation enrichment
51 | RFGKVYKAHLF [ROR2_Y488_G490A] | 0.72
52 | VHNLDYFKKTT [FGFR3_Y647_YF] | 0.437
53 | EAKENYGKTLK [CHL1_Y291_T287A] | 0.456
54 | EDASEYFENFI [PARP4_Y214_F215Y_YF] | 1.48
55 | GFFDLYGGEKF [PTPN11_Y66_D61G_YF] | 0.484
56 | ESFRLYPPVPQ [CYP4B1_Y377] | 0.342
57 | NTQRPHYKGGG [TYROBP_Y111_Y111H] | 0.316
58 | LSSETYVKSFT [F5_Y2149_M2148T_YF] | 0.743
59 | MKSIKYMDKEI [CCDC60_Y41] | 0.452
60 | RSSGGYEPRGC [FUS_Y239_R244C] | 0.371
61 | ESLRRYLENGK [HLA-B_Y195_W191S] | 0.397
62 | FGGLRYGFGGL [KRTAP20-2_Y13_V17G_YF] | 0.672
63 | DTERIYDDDFF [UBA1_Y560] | 0.605
64 | IKETHYMVDKC | 0.489
65 | ENPLDYGSAWA [AR_Y395] | 0.491
66 | ENELTYFCCKK [CD59_Y86_YF] | 0.867

Source: the supplement of paper PMC10065799, “High-throughput profiling of sequence recognition by tyrosine kinases and SH2 domains using bacterial peptide display” (eLife, 2023)
